Experimental data as given in article doi:10.1101/2020.06.18.159806 (bioRxiv, 2020).

Target: the molecule itself
Assay: crystal structure

LSEGLRESLSSYISLAEDP (domain or fragment, UniProt Q8R4L0 237-255, looked up) [C-terminal tail of mouse SLAP2 (residues 237-255)]: binds.
